# Experimental data: the supplement of paper PMC10126150
# ± gives the standard deviation of the averaged measurements.
# Test system: ATP
# Test: switch fluorescence ratio, 500 uM ATP over buffer (Cy3 cluster intensity, sum of 5 cycles each) (fold (ratio)); higher = stronger signal-on switching upon ATP binding; sequences stand for … in TCGTCGGCAGCGTCAGATGTGTATAAGAGACAGTTTTTTTTTTTTTTTTTTTTTTTTT…TC
# Conditions: aptamer strand: ATP DNA aptamer (quencher-CACCTGGGGGAGTATTGCGGAGGAAGG + anchor), 100 nM annealed; ATP concentration: 500 uM
# Outline: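 Cy3-labelled switching-strand clusters on a modified Illumina MiSeq flow-cell were annealed to 100 nM quencher-labelled ATP aptamer, imaged in selection buffer, then imaged after 15 min with 500 uM ATP at 22 °C. Five buffer/ATP cycles ran, with NaOH stripping and re-annealing between them. The fluorescence ratio is summed target-cycle over summed buffer-cycle Cy3 intensity per cluster, averaged per switch-domain sequence. Clusters outside 100-1000 RFU were excluded.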
# 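Note: ATP exposure 15 min at 22 °C before imaging.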
row,Sequence,switch fluorescence ratio
1,TCAAGGCCGG,1.02 ± 0.035
2,TCAAGGGGCT,1 ± 0.013
3,TCAAGGGGGC,0.9915 ± 0.0018
4,TCAAGGGTTA,1.02 ± 0.011
5,TCAAGTGCAG,0.99 ± 0.027
6,TCAAGTTTTG,0.972 ± 0.015
7,TCAATAGAGG,1.05 ± 0.034
8,TCAATAGGTT,1.01 ± 0.024
9,TCAATGCGCC,1.46 ± 0.4
10,TCAATGGGAA,0.967 ± 0.026
11,TCAATGGTTG,0.988 ± 0.028
12,TCAATTTCAC,1.9 ± 1.3
13,TCAATTTTGT,0.997 ± 0.022
14,TCACAGTTGG,1.032 ± 0.0034
15,TCACATTATA,1.009 ± 0.0078
16,TCACCTTGGA,1.05 ± 0.096
17,TCACGGTGCT,1.15 ± 0.19
18,TCACGTAGGC,1.04 ± 0.053
19,TCACGTGGTT,1.03 ± 0.016
20,TCACTCTATC,1.0455 ± 0.00057
21,TCACTGGGTT,1.01 ± 0.068
22,TCACTGGTCT,0.9849 ± 0.0037

row,Sequence,switch fluorescence ratio
1,TCACTGGTTG,1.01 ± 0.011
2,TCACTTGGGT,0.996 ± 0.036
3,TCAGAAAGTG,1 ± 0.041
4,TCAGACAGCG,1.03 ± 0.053
5,TCAGACGTTC,1.07 ± 0.05
6,TCAGACGTTT,1.011 ± 0.009
7,TCAGACTGCG,0.999 ± 0.023
8,TCAGAGGATC,0.961 ± 0.017
9,TCAGAGGTAT,1.02 ± 0.014
10,TCAGATAGGG,0.968 ± 0.017
11,TCAGATGTCT,1.03 ± 0.055
12,TCAGCATGTC,1.27 ± 0.036
13,TCAGCGAATT,0.98 ± 0.015
14,TCAGCGTGTC,0.9648 ± 0.0079
15,TCAGCTGGGG,0.9799 ± 0.0058
16,TCAGGAATTT,1.68 ± 1.2
17,TCAGGAGTAA,1.82 ± 0.12
18,TCAGGATGGA,1 ± 0.018
19,TCAGGATTGA,0.98 ± 0.036
20,TCAGGCCCGT,1.01 ± 0.026
21,TCAGGGAGTA,1.04 ± 0.053
22,TCAGGGATGG,0.984 ± 0.042

row,Sequence,switch fluorescence ratio
1,TCAGGGGAGG,1.03 ± 0.036
2,TCAGGGGCAT,1.18 ± 0.3
3,TCAGGGGCCT,1.03 ± 0.044
4,TCAGGGGTT,1.15 ± 0.12
5,TCAGGGTGCT,1.1 ± 0.029
6,TCAGGGTTGC,1.03 ± 0.025
7,TCAGGTAATG,0.98 ± 0.033
8,TCAGGTAGTG,0.9875 ± 0.0078
9,TCAGGTATCG,1 ± 0.021
10,TCAGGTATGT,1.01 ± 0.038
11,TCAGGTTAGT,1.02 ± 0.022
12,TCAGTAAATT,0.965 ± 0.055
13,TCAGTAGGCA,1.01 ± 0.011
14,TCAGTCCTAT,1 ± 0.026
15,TCAGTCGGAT,0.9768 ± 0.0078
16,TCAGTGAGTG,1 ± 0.033
17,TCAGTGCTGT,1 ± 0.035
18,TCAGTGCTTA,1.01 ± 0.038
19,TCAGTGGATG,0.9794 ± 0.0032
20,TCAGTGGGGC,0.9987 ± 0.0093
21,TCAGTGGGGT,1.004 ± 0.0072
22,TCAGTTGTGC,1.01 ± 0.042

row,Sequence,switch fluorescence ratio
1,TCAGTTTACG,0.988 ± 0.019
2,TCAGTTTGTT,0.997 ± 0.023
3,TCAGTTTTCT,1.01 ± 0.057
4,TCATAAATTT,1.01 ± 0.018
5,TCATAACTGC,1.02 ± 0.029
6,TCATAATTAG,1 ± 0.0068
7,TCATAATTGA,0.99 ± 0.012
8,TCATACCGTA,1.09 ± 0.022
9,TCATACGGGG,1.01 ± 0.023
10,TCATAGATCG,1.01 ± 0.027
11,TCATAGTACG,1.02 ± 0.043
12,TCATAGTGTT,1.01 ± 0.04
13,TCATATTATG,1.02 ± 0.034
14,TCATATTATT,1 ± 0.033
15,TCATCAGCAG,2.96 ± 1.7
16,TCATCTAGGA,0.985 ± 0.011
17,TCATCTGCTG,1.17 ± 0.087
18,TCATGAGATT,1.02 ± 0.021
19,TCATGCAAAT,1.04 ± 0.031
